Assay results published in the supplement of paper PMC5998384.

Columns and labels:
HeLa Kyoto [1] = assay: melting temperature (median over replicates), in situ; higher = more thermally stable
HeLa Kyoto [2] = assay: solubility in G1/S (NP-40 vs SDS abundance) (log2 ratio); higher = more soluble; details: cell cycle stage: G1/S
HeLa Kyoto [3] = assay: solubility change mitosis vs G1/S (difference of NP-40 vs SDS log2 ratios) (log2 ratio difference); higher = more soluble in mitosis
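For melting temperature (median over replicates), in situ in this document: HeLa Kyoto cells synchronized by double thymidine or nocodazole block, proteins quantified by TMT10plex mass spectrometry, three independent biological replicates.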
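For solubility change mitosis vs G1/S (difference of NP-40 vs SDS log2 ratios) in this document: synchronized HeLa Kyoto cells (double thymidine block for G1/S, nocodazole release for mitosis), protein amounts in NP-40 versus SDS lysates quantified by mass spectrometry, three biological replicates.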
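For solubility in G1/S (NP-40 vs SDS abundance) in this document: HeLa Kyoto cells arrested at G1/S by double thymidine block, proteins quantified by TMT10plex mass spectrometry in mild NP-40 versus SDS extracts, three biological replicates.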

Sequence	melting temperature (HeLa Kyoto [1]; cell cycle stage: G1/S) [°C]	melting temperature (HeLa Kyoto [1]; cell cycle stage: mitosis) [°C]	solubility in G1/S (log2) (HeLa Kyoto [2])	solubility change mitosis (log2) (HeLa Kyoto [3])
MDLHMMNCELLATCSALGYLEGDTYHKEPDCLESVKDLIRYLRHEDETRDVRQQLGAAQILQSDLLPILTQHHQDKPLFDAVIRLMVNLTQPALLCFGNLPKEPSFRHHFLQVLTYLQAYKEAFASEKAFGVLSETLYELLQLGWEERQEEDNLLIERILLLVRNILHVPADLDQEKKIDDDASAHDQLLWAIHLSGLDDLLLFLASSSAEEQWSLHVLEIVSLMFRDQNPEQLAGVGQGRLAQERSADFAELEVLRQREMAEKKTRALQRGNRHSRFGGSYIVQGLKSIGERDLIFHKGLHNLRNYSSDLGKQPKKVPKRRQAARELSIQRRSALNVRLFLRDFCSEFLENCYNRLMGSVKDHLLREKAQQHDETYYMWALAFFMAFNRAASFRPGLVSETLSVRTFHFIEQNLTNYYEMMLTDRKEAASWARRMHLALKAYQELLATVNEMDISPDEAVRESSRIIKNNIFYVMEYRELFLALFRKFDERCQPRSFLRDLVETTHLFLKMLERFCRSRGNLVVQNKQKKRRKKKKKVLDQAIVSGNVPSSPEEVEAVWPALAEQLQCCAQNSELSMDSVVPFDAASEVPVEEQRAEAMVRIQDCLLAGQAPQALTLLRSAREVWPEGDVFGSQDISPEEEIQLLKQILSAPLPRQQGPEERGAEEEEEEEEEEEEELQVVQVSEKEFNFLDYLKRFACSTVVRAYVLLLRSYQQNSAHTNHCIVKMLHRLAHDLKMEALLFQLSVFCLFNRLLSDPAAGAYKELVTFAKYILGKFFALAAVNQKAFVELLFWKNTAVVREMTEGYGSLDDRSSSRRAPTWSPEEEAHLRELYLANKDVEGQDVVEAILAHLNTVPRTRKQIIHHLVQMGLADSVKDFQRKGTHIVLWTGDQELELQRLFEEFRDSDDVLGHIMKNITAKRSRARIVDKLLALGLVAERRELYKKRQKKLASSILPNGAESLKDFCQEDLEEEENLPEEDSEEEEEGGSEAEQVQGSLVLSNENLGQSLHQEGFSIPLLWLQNCLIRAADDREEDGCSQAVPLVPLTEENEEAMENEQFQQLLRKLGVRPPASGQETFWRIPAKLSPTQLRRAAASLSQPEEEQKLQPELQPKVPGEQGSDEEHCKEHRAQALRALLLAHKKKAGLASPEEEDAVGKEPLKAAPKKRQLLDSDEEQEEDEGRNRAPELGAPGIQKKKRYQIEDDEDD [TIMELESS]	49.5	49.2	-0.204	-0.0762
MDNLSSEEIQQRAHQITDESLESTRRILGLAIESQDAGIKTITMLDEQKEQLNRIEEGLDQINKDMRETEKTLTELNKCCGLCVCPCNRTKNFESGKAYKTTWGDGGENSPCNVVSKQPGPVTNGQLQQPTTGAASGGYIKRITNDAREDEMEENLTQVGSILGNLKDMALNIGNEIDAQNPQIKRITDKADTNRDRIDIANARAKKLIDS [SNAP23]	54.8	54	-0.00465	0.381
MDTLDRVVKPKTKRAKRFLEKREPKLNENIKNAMLIKGGNANATVTKVLKDVYALKKPYGVLYKKKNITRPFEDQTSLEFFSKKSDCSLFMFGSHNKKRPNNLVIGRMYDYHVLDMIELGIENFVSLKDIKNSKCPEGTKPMLIFAGDDFDVTEDYRRLKSLLIDFFRGPTVSNIRLAGLEYVLHFTALNGKIYFRSYKLLLKKSGCRTPRIELEEMGPSLDLVLRRTHLASDDLYKLSMKMPKALKPKKKKNISHDTFGTTYGRIHMQKQDLSKLQTRKMKGLKKRPAERITEDHEKKSKRIKKN [RPF2]		53.4	-2.68	1.42
MEADSPAGPGAPEPLAEGAAAEFSSLLRRIKGKLFTWNILKTIALGQMLSLCICGTAITSQYLAERYKVNTPMLQSFINYCLLFLIYTVMLAFRSGSDNLLVILKRKWWKYILLGLADVEANYVIVRAYQYTTLTSVQLLDCFGIPVLMALSWFILHARYRVIHFIAVAVCLLGVGTMVGADILAGREDNSGSDVLIGDILVLLGASLYAISNVCEEYIVKKLSRQEFLGMVGLFGTIISGIQLLIVEYKDIASIHWDWKIALLFVAFALCMFCLYSFMPLVIKVTSATSVNLGILTADLYSLFVGLFLFGYKFSGLYILSFTVIMVGFILYCSTPTRTAEPAESSVPPVTSIGIDNLGLKLEENLQETHSAVL [SLC35F2]		56.1	0.147	-0.182
MEDSGKTFSSEEEEANYWKDLAMTYKQRAENTQEELREFQEGSREYEAELETQLQQIETRNRDLLSENNRLRMELETIKEKFEVQHSEGYRQISALEDDLAQTKAIKDQLQKYIRELEQANDDLERAKRATIMSLEDFEQRLNQAIERNAFLESELDEKENLLESVQRLKDEARDLRQELAVQQKQEKPRTPMPSSVEAERTDTAVQATGSVPSTPIAHRGPSSSLNTPGSFRRGLDDSTGGTPLTPAARISALNIVGDLLRKVGALESKLASCRNLVYDQSPNRTGGPASGRSSKNRDGGERRPSSTSVPLGDKGLDTSCRWLSKSTTRSSSSC [NDE1]	54.1	53.7	0.236	0.568
MEEYHRHCDEVGFNAEEAHNIVKECVDGVLGGEDYNHNNINQWTASIVEQSLTHLVKLGKAYKYIVTCAVVQKSAYGFHTASSCFWDTTSDGTCTVRWENRTMNCIVNVFAIAIVL [DYNLT3]	53.3	54.1	-0.189	-0.243
